In patent JP2005168497A (dated 2005):
Where a chain is given by its changes, count along the chain named. Values belong to the binder of their own block, whether it stands above or below them.

Legend:
[1] = molecular target: ヒトTRAIL-R2 (細胞表面の受容体; Colo205, U251, Jurkat, 正常ヒト肝実質細胞) (human, UniProt O14763 56-440); assay: cell-based or functional assay
[2] = molecular target: T1, TRAIL-R1-hFc (ヒトTRAIL-R1の細胞外領域とヒトIgG1のFc領域とが融合したタンパク質, ALEXIS社製) (human, UniProt O00220 24-239); assay: ELISA, purified antibody on plate-coated TRAIL-R1-hFc (Example 4)
T1 construct: extracellular domain; Bought (ALEXIS); not shown: human IgG1 Fc region
T1 sequence (looked up): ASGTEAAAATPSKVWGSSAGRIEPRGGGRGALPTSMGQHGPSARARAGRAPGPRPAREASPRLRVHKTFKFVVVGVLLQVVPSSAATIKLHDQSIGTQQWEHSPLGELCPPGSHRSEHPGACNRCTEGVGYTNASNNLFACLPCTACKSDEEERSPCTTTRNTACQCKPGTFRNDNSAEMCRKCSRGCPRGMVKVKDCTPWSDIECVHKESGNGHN

B1: L-30-10抗体 (ハイブリドーマL-30-10, FERM BP-7700 / FERM BP-7769 の産生するヒト抗TRAIL-R2モノクローナル抗体) (antibody, V domains shown)
VH: QLQLQESGPGLVKPSETLSLTCTVSGGSISSRSNYWGWIRQPPGKGLEWIGNVYYRGSTYYNSSLKSRVTISVDTSKNQFSLKLSSVTVADTAVYYCARLSVAEFDYWGQGILVTVSS
VL: EIVLTQSPATLSLSPGERATLSCRASQSVSSFLAWYQQKPGQAPRLLIYDASNRATGSPARFSGSGSGTDFTLTISSLEPEDFAVYYCQQRSDWPLTFGPGTKVDIK
Jurkat細胞に対するLD50 (48時間) [1]: 0.13 µg/mL | U251細胞に対するLD50 (シスプラチン4μg/ml同時添加, 48時間) [1]: 0.17 µg/mL

B2: E-11-13抗体 (ハイブリドーマE-11-13, FERM BP-7698 / FERM BP-7770 の産生するヒト抗TRAIL-R2モノクローナル抗体) (antibody, V domains shown)
VH: QLQLQESGPGLVKPSETLSLTCTVSGGSIISKSSYWGWIRQPPGKGLEWIGSIYYSGSTFYNPSLKSRVTISVDTSKNQFSLKLSSVTAADTAVYYCARLTVAEFDYWGQGTLVTVSS
VL: B1 VL with S58I, D93N
Jurkat細胞に対するLD50 (48時間) [1]: 0.1 µg/mL | U251細胞に対するLD50 (シスプラチン4μg/ml同時添加, 48時間) [1]: 0.3 µg/mL

binding result [2]: binds
B3: KMTR1抗体 (ハイブリドーマKMTR1, FERM BP-8038 の産生するヒトモノクローナル抗体) (antibody, V domains shown)
VH: EVQLLESGGGLVQPGRSLRLSCAASGFTFSSYAMSWVRQAPGKGLEWVSAISGSGGSRYYADSVKGRFTISRDNSKNTLYLQMNSLRAEDTAVYYCAKESSGWFGAFDYWGQGTLVTVSS
VL: EIVLTQSPDFQSVTPKEKVTITCRASQSIGSSLHWYQQKPDQSPKLLIKYASQSFSGVPSRFSGSGSGTDFTLTINSLEAEDAAAYYCHQSSSLPITFGQGTRLEIK
notes: Human IgG, kappa light chain; Signal peptide limits are predictions, not N-terminal analysis
